Measured values as given in patent US20110110981A1.

Target: purified IgG1
Experiment: ELISA on dilutions of purified isotype standards

Substance: anti-mouse IgG1 secondary antibody (tool reagent)
- greater affinity than the IgG2a antibody pair: 40%
